We go through 1 molecule from US20250250555A1 (DENALI THERAPEUTICS, published 2025).

Assay in all cases: SPR (Biacore), fusion protein captured on chip, human apical domain TfR injected, steady-state fit
Background: SPR reads the build-up and loss of mass on a sensor chip optically.

The target of assay [1] is T1, ETV:GAA Fusion 3 (human, UniProt P0DOX5 223-449 = IgG part).
T1 construct: Heterodimer of the two chains; also called C-terminal monozyme GAA-Fc fusion protein
How it is done:
(§1) To determine whether GAA-Fc fusion proteins with engineered TfR binding affects the ability of the modified Fc domain to interact with human TfR, the affinity of ETV:GAA fusion proteins (Example 1) for human TfR was assessed using a Biacore™ surface plasmon resonance assay. Biacore™ Series S CM5 sensor chips were immobilized with anti-human Fab (human Fab capture kit from GE Healthcare). Five (5) μg/mL of the GAA-Fc fusion proteins were captured for 1 minute on each flow cell and serial 3-fold dilutions of human apical domain TfR were injected at a flow rate of 30 μL/min. Each sample was analyzed with a 3-minute association and a 3-minute dissociation. After each injection, the chip was regenerated using 10 mM glycine-HCl (pH 2.1). Binding response was corrected by subtracting the RU from a flow cell capturing an irrelevant IgG at similar density. Steady-state affinities were obtained by fitting the response at equilibrium against the concentration using Biacore™ T200 Evaluation Software v3.1.

In assay [2] the target is T2, ETV:GAA Fusion 4 (human, UniProt P0DOX5 223-449 = IgG part).
T2 construct: Heterodimer of the two chains; also called C-terminal monozyme GAA-Fc fusion protein
How it is done: as §1

In assay [3] the target is T3, ETV:GAA Fusion 2 (human, UniProt P0DOX5 223-449 = IgG part).
T3 construct: Heterodimer of the two chains; also called N-terminal monozyme GAA-Fc fusion protein
How it is done: as §1

The target in assay [4] is T4, ETV:GAA Fusion 1 (human, UniProt P0DOX5 223-449 = IgG part).
T4 construct: Heterodimer of the two chains; also called N-terminal monozyme GAA-Fc fusion protein
The procedure:
as §1

B1: human apical domain TfR (receptor)
chain: NSVIIVDKNGRLVYLVENPGGYVAYSKAATVTGKLVHANFGTKKDFEDLYTPVNGSIVIVRAGKITFAEKVANAESLNAIGVLIYMDQTKFPIVNAELSFFGHAHLGTGDPYTPGFPSFNHTQFPPSRSSGLPNIPVQTISRAAAEKLFGNMEGDCPSDWKTDSTCRMVTSESKNVKLTVS
notes: also called human TfR; huTfR
As a reminder, the Kd is a measure of binding affinity in units of concentration. Read a high Kd as lower affinity. Consider B1, for which the Kd worked out at 282 nM in assay [1], 271 nM in assay [2], 260 nM in assay [3] and 251 nM in assay [4].
